According to patent US20070128627A1 (US Dept. of Health and Human Services, published 2007):

Columns and labels:
[1] = molecular target: T1, VP16/GR (UniProt P06536 1-795); experiment: mammalian two-hybrid ±1 µM Dex (FIG. 6B)
T1 construct: Assayed with and without 1 µM Dex
T1 sequence: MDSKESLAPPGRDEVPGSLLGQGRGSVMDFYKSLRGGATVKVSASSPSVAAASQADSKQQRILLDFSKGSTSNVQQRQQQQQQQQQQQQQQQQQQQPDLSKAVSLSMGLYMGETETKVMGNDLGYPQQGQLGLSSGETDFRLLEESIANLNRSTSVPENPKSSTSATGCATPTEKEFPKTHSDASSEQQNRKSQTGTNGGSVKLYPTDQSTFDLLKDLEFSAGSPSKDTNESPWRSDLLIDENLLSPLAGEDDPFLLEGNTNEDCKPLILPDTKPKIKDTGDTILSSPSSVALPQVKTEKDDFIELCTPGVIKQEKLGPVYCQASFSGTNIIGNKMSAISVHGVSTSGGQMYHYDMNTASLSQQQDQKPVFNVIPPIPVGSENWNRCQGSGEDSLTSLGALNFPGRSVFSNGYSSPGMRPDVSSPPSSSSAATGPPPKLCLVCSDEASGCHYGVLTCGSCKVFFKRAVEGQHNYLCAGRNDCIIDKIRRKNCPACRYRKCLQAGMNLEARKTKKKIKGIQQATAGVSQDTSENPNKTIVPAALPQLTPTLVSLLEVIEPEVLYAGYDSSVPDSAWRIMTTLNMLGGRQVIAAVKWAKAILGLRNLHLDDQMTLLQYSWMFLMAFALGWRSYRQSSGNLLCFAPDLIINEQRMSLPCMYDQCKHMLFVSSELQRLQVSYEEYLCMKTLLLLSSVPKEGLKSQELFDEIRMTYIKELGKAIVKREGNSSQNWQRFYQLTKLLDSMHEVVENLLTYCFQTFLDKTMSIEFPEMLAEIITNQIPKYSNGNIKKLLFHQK

[2] = molecular target: T2, VP16/TIF2.4 (human, UniProt Q15596 624-1010); experiment: mammalian two-hybrid in CV-1 cells, relative luciferase activity (FIG. 6A)
T2 construct: Only the TIF2.4 fragment is present; The text gives no limits for it, so the whole TIF2 entry is named
T2 sequence: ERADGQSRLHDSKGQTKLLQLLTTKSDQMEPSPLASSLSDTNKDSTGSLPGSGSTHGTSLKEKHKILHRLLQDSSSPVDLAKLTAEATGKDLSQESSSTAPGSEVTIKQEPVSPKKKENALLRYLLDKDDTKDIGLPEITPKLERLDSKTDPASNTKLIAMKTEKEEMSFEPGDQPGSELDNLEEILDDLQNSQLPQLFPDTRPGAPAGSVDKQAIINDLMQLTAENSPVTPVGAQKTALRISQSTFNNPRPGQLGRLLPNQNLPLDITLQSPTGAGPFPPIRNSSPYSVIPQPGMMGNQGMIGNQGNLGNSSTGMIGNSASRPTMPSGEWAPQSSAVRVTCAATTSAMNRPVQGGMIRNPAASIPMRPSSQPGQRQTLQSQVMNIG
Source text: Triplicate samples of CV-1 cells were transiently transfected with VP16 or VP16/TIF2.4 in FIG. 6A experiments. […] After determining the relative luciferase activities as described in FIG. 2B and 2C, the average values±S.E.M. from 2-5 experiments were plotted.

B1: GAL/STAMP(623-834) (other)
chain: MKLLSSIEQACDICRLKKLKCSKEKPKCAKCLKNNWECRYSPKTKRSPLTRAHLTEVESRLERLEQLFLLIFPREDLDMILKMDSLQDIKALLTGLFVQDNVNKDAVTDRLASVETDMPLTLRQHRISATSSSEESSNKGQRQLTVSENTPKENSMKVREWNNKGGHCCKLETQELEPKFNLMQILQDNGNLSKMQARIAFSAYLQHVQIRLMKDSGGQTFSASWAAKEDEQMELVVRFLKRASNNLQHSLRMVLPSRRLALLERRRILAHQLGDFIIVYNKETEQMAEKKSKKKVEEEEEDGVNMENFQEFIRQASEAELEEVLTFYTQKNKSASVFLGTHSKISKNNNNYSDSGAKG
notes: domain: GAL-DBD; Expressed in CV-1 cells for the mammalian two-hybrid assay; also called Gal/6-6CL1
binding result [1]: no binding | average fold increase above the VP16 control [2]: 11 fold
